Laboratory results taken from paper PMC9841335, “Structure of a bacterial ribonucleoprotein complex central to the control of cell envelope biogenesis” (The EMBO Journal, 2022).

B1: RNase E-NTD (residues 1-598, Δ568–582, D346C) (domain or fragment)
chain: not shown
notes: also called mutant RNase E‐NTD; RNase E catalytic domain; source: E. coli BL21(DE3), pET16 vector, purified (IMAC, butyl Sepharose, Superdex 200 SEC)

Experiments:
[1] = target: the molecule itself; assay: cryo-EM structure; RNase E-NTD (D346C), full-length RapZ and full-length GlmZ RNA at 5:25:10 μM in 25 mM HEPES pH 7.5, 300 KCl, 1 mM MgCl2, cross-linked with 0.01% glutaraldehyde, Superose 6 SEC, graphene oxide-coated grids; binary RapZ:GlmZ and ternary classes from one dataset
[2] = target: B1; assay: as above; details: both partners purified
[3] = target: T1, RNase E-NTD (wild type, BACTH fusion) (E. coli, UniProt P21513 1-529); assay: two-hybrid; adenylate cyclase-based bacterial two-hybrid (BACTH) in E. coli BTH101, pKT25 (T25-RapZ) and pUT18C-type plasmids, LB with 1 mM IPTG, β-galactosidase activity; endogenous GlmZ present in the cell; details: partners not purified
T1 construct: RNase E, E. coli, N-terminal catalytic domain (NTD); The text calls the two-hybrid partner 'RNase E' and its variants 'RNase E‐NTD variants'; also called RNase E wild type; source: bacterial two-hybrid fusion (pUT18C-type plasmid) in E. coli BTH101

| stoichiometry N [2] | fold decrease of the BACTH signal against wild-type RapZ [3] | Binder | stoichiometry N [1] |
| --- | --- | --- | --- |
| – | – | B1 | 4 |
| 2 RapZ tetramers per RNase E-NTD tetramer | – | RapZ (full-length, purified recombinant) (natural protein, E. coli, UniProt P0A894 1-284, looked up, The Strep-tag is cleavable by TEV protease; Construct and procedure follow Gonzalez et al, 2017; In all complexes with RNase E-NTD the sRNA GlmZ was present; also called RapZ tetramer; full‐length RapZ; source: E. coli Rosetta, plasmid pMCSG7, purified (Strep Trap HP, Superdex 200 SEC)) MVLMIVSGRSGSGKSVALRALEDMGFYCVDNLPVVLLPDLARTLADREISAAVSIDVRNMPESPEIFEQAMSNLPDAFSPQLLFLDADRNTLIRRYSDTRRLHPLSSKNLSLESAIDKESDLLEPLRSRADLIVDTSEMSVHELAEMLRTRLLGKRERELTMVFESFGFKHGIPIDADYVFDVRFLPNPHWDPKLRPMTGLDKPVAAFLDRHTEVHNFIYQTRSYLELWLPMLETNNRSYLTVAIGCTGGKHRSVYIAEQLADYFRSRGKNVQSRHRTLEKRKP | 4 |
| – | 2 fold | T25-RapZ 4 substitutions (T161A, Y240A, N271A, Q273A; BACTH fusion) (natural protein, E. coli, UniProt P0A894 1-284, looked up, RapZ, E. coli, with alanine substitutions of Q273, N271, Y240 and T161; source: bacterial two-hybrid fusion (pKT25 plasmid) in E. coli BTH101) MVLMIVSGRSGSGKSVALRALEDMGFYCVDNLPVVLLPDLARTLADREISAAVSIDVRNMPESPEIFEQAMSNLPDAFSPQLLFLDADRNTLIRRYSDTRRLHPLSSKNLSLESAIDKESDLLEPLRSRADLIVDTSEMSVHELAEMLRTRLLGKRERELAMVFESFGFKHGIPIDADYVFDVRFLPNPHWDPKLRPMTGLDKPVAAFLDRHTEVHNFIYQTRSYLELWLPMLETNNRSALTVAIGCTGGKHRSVYIAEQLADYFRSRGKAVASRHRTLEKRKP | – |
